One block for each molecule: values may come before it.
B1: VWF-A1 mutant A1_mut (D1323A/R1334A/Q1367A) (domain or fragment)
chain: QEPGGLVVPPTDAPVSPTTLYVEDISEPPLHDFYCSRLLDLVFLLDGSSRLSEAEFEVLKAFVVDMMERLRISQKWVRVAVVEYHAGSHAYIGLKDAKRPSELRRIASQVKYAGSQVASTSEVLKYTLFAIFSKIDRPEASRITLLLMASQEPQRMSRNFVRYVQGLKKKKVIVIPVGIGPHANLKQIRLIEKQAPENKAFVLSSVDELEQQRDEIVSYLCDLAPEAPPPTLPPD
notes: von Willebrand factor, A1 domain, residues Q1238-D1472, with D1323A, R1334A and Q1367A; source: HEK293F cells, culture medium collected, purified (Ni2+-Hi-Trap chelating column); not shown: His tag, N-terminal, kept
B3: recombinant VWF-A2 (von Willebrand factor A2 domain, amino acids M1473-G1672), wild type (domain or fragment)
chain: MAQVTVGPGLLGVSTLGPKRNSMVLDVAFVLEGSDKIGEADFNRSKEFMEEVIQRMDVGQDSIHVTVLQYSYMVTVEYPFSEAQSKGDILQRVREIRYQGGNRTNTGLALRYLSDHSFLVSQGDREQAPNLVYMVTGNPASDEIKRLPGDIQVVPIGVGPNANVQELERIGWPNAPILIQDFETLPREAPDLVLQRCCSG
modifications: biotinylated in the BLI assay (site not stated); not said to be biotinylated in the AFM assay
notes: von Willebrand factor, A2 domain, residues M1473-G1672; cloned from a full-length VWF plasmid (MiaoLingBio); Secreted into the medium of HEK293F cells; The discussion calls the host HEK293 cells; source: HEK293F cells, culture medium collected, purified (Ni2+-Hi-Trap chelating column); not shown: His tag, N-terminal, kept

Columns and labels:
[1] = molecular target: von Willebrand factor A2 G1481-R1668 (Homo sapiens) (UniProt P04275); settings: cited from earlier work
[2] = molecular target: B3; test: atomic force microscopy (adhesion frequency and rupture force); VWF-A2 (15 ug/mL) held on the cantilever tip and VWF-A1 or its variants (15 ug/mL) on polystyrene dishes, each through adsorbed mouse anti-His mAb; blocked with 2% BSA; approach-retraction speed 200 nm/s in 2% BSA; 100 contact cycles a point; settings: both partners purified
[3] = molecular target: T1, recombinant VWF-A1 (von Willebrand factor A1 domain, amino acids Q1238-D1472), wild type (UniProt P04275 1238-1472); test: BLI; biotinylated A2 (10 ug/mL) immobilised on streptavidin biosensors, quenched with biocytin; A1 125-4000 nM in solution; Octet R8, 30 °C, 1000 rpm; PBS with 0.02% Tween-20 and 0.1% BSA; global fit to a 1:1 Langmuir model; settings: both partners purified
T1 construct: von Willebrand factor, A1 domain, residues Q1238-D1472; cloned from a full-length VWF plasmid (MiaoLingBio); Secreted into the medium of HEK293F cells; The tag is 6xHis to judge from the anti-6xHis antibody used for capture; also called WT A1; WT VWF-A1; source: HEK293F cells, culture medium collected, purified (Ni2+-Hi-Trap chelating column); not shown: His tag, N-terminal, kept

[4] = molecular target: B1; test: as above; settings: both partners purified

Molecule: von Willebrand factor A1 A1 (from UniProt P04275)
- Kd [1]: 64.9 nM

Molecule: B1
- adhesion frequency [2]: 14.5%
- average rupture force [2]: 41.5 pN
- central peak value (XC) of the rupture force distribution [2]: 35 pN

- Kd [3]: 4.2 µM
- koff [3]: 0.046 s⁻¹
- kon [3]: 11000 M⁻¹ s⁻¹
B2: VWF-A2 mutant A2_mut (V1546A/R1575A/E1598A) (domain or fragment)
chain: MAQVTVGPGLLGVSTLGPKRNSMVLDVAFVLEGSDKIGEADFNRSKEFMEEVIQRMDVGQDSIHVTVLQYSYMATVEYPFSEAQSKGDILQRVREIRYQGGNATNTGLALRYLSDHSFLVSQGDRAQAPNLVYMVTGNPASDEIKRLPGDIQVVPIGVGPNANVQELERIGWPNAPILIQDFETLPREAPDLVLQRCCSG
notes: von Willebrand factor, A2 domain, residues M1473-G1672, with V1546A, R1575A and E1598A; source: HEK293F cells, culture medium collected, purified (Ni2+-Hi-Trap chelating column); not shown: His tag, N-terminal, kept

Molecule: B3
- Kd [3]: 2.16 µM
- koff [3]: 0.037 s⁻¹
- kon [3]: 17000 M⁻¹ s⁻¹
- Kd [4]: 6.1 µM
- koff [4]: 0.081 s⁻¹
- kon [4]: 13000 M⁻¹ s⁻¹

— article PMC12743552, “Key residues regulating von Willebrand factor A1/A2 interactions: insights from molecular dynamics simulations and experimental validation” (Research and Practice in Thrombosis and Haemostasis, 2025)
